Substitutions are numbered along the chain they refer to.
T1: Mouse GFRAL (mGFRAL) on HEK293 reporter cells with mouse RET (mouse, UniProt Q6SJE0 20-393)
T1 sequence (looked up): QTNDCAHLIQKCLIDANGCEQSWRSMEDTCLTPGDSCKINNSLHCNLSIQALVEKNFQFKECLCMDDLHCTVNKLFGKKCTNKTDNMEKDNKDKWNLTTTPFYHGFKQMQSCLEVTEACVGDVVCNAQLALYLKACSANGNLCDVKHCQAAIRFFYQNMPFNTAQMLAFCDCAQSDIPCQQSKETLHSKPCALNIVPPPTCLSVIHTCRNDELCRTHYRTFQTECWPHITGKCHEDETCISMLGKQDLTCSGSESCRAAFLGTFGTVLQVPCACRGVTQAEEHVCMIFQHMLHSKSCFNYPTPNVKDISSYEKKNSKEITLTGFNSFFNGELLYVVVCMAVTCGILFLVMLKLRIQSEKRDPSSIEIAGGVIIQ

T2: Human GFRAL (hGFRAL) on HEK293 reporter cells with human RET (human, UniProt Q6UXV0 19-394)
T2 sequence (looked up): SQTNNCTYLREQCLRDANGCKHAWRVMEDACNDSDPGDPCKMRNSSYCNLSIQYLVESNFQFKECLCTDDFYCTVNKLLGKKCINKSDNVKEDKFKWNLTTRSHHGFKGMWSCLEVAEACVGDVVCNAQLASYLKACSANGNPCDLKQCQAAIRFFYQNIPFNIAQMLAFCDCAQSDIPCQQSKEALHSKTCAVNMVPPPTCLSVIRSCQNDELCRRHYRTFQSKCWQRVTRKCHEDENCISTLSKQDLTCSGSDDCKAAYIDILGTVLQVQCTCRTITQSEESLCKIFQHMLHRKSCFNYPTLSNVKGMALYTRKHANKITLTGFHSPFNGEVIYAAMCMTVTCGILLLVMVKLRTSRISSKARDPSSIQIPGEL

T3: Mouse GFRAL-Fc protein (mouse, UniProt Q6SJE0 20-349, limits assumed)
T3 construct: not shown: Fc
T3 sequence (looked up): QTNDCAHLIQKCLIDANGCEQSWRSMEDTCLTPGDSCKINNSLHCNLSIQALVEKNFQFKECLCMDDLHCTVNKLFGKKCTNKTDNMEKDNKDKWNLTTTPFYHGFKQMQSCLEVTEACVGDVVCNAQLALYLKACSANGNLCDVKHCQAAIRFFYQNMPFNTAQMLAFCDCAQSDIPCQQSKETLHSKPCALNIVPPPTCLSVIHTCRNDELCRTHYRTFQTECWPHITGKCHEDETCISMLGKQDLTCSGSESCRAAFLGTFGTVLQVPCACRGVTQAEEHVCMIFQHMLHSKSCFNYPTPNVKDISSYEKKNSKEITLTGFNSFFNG

T4: Human GFRAL-His protein (human, UniProt Q6UXV0 19-351)
T4 construct: also called human GFRAL-His fusion protein; not shown: His tag
T4 sequence (looked up): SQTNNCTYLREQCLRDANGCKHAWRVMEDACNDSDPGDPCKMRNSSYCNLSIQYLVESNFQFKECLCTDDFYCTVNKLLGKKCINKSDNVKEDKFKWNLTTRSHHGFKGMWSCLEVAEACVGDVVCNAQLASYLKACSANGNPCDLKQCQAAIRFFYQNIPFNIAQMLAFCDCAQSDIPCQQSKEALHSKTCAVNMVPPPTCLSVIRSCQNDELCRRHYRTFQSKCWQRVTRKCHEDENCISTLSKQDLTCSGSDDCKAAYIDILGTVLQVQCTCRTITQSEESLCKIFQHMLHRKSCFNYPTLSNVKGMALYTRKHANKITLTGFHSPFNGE

T5: Human GFRAL protein (Biacore analyte) (human, UniProt Q6UXV0 19-351, limits assumed)
T5 construct: also called hGFRAL
T5 sequence (looked up): T4 sequence (looked up)

T6: Mouse GFRAL protein (Biacore analyte) (mouse, UniProt Q6SJE0 20-349, limits assumed)
T6 construct: also called mGFRAL
T6 sequence (looked up): T3 sequence (looked up)

B1: 168A7 (antibody, V domains shown)
VH: QVTLKESGPGILKPSQTLSLTCSFSGFSLSTSDMGVGWIRQPSGKGLEWLAHIWWDDDKYYNPSLKRQLTISKDNSRNQVFLKISSVDTTDTATYYCARLYDYDDEYYFDYWGQGTTLTVSS
VL: DIQMTQTKSSLSASLGDRVTISCRASQDSNNYLNWYQQKPDGTVKLLIYYTSRLHSGVPSRFSGSGSGTDYSLTISNLEHEDIATYFCQQGNTIPWTFGGGTKLEIK
notes: Murine hybridoma antibody, purified
B2: 8E10 (antibody, V domains shown)
VH: QVQLQQSGSELVRPGSSVKISCRASGYTFSNYWMNWVKQRPGQGLEWIGQIYPGDDDADYNGKFQGKATLTADKSSSTAYMQLNTLTSEDSAVYFCTRSGRRDFDYWGQGTTLTVSS
VL: NIVLTQSPASLAVSLGQRATISCRASESIDNYGNSFMHWYQQKPGQPPKLLIYRASNLESGVPARFSGSGSRTDFTLTIDPVEADDAATYYCQQNNEDPYTFGGGTKLEIK
notes: as for B1
B3: 165C5 (antibody, V domains shown)
VH: EVKLVESGGGLVKPGGSLKLSCAASGFTFSSYAMSWVRQTPEKRLEWVASITTGGSTYYLDSVRGRFTISRDNARNILSLQMSSLRSEDTAIYYCARSLIITATGFDYWGQGTTLTVSS
VL: DIVMTQSQKFMSISVGDRVNITCRASQDVGTAVAWYQQKPGQSPKLLIYSASNRYTGVPNRFTGSGSGTDFTLAISNMQSEDLADYFCQQYSIYYTFGGGTKLEIK
notes: as for B1
B4: 174D6 (antibody, V domains shown)
VH: QVQLKQSGPGLVQPSQSLSITCTVSGFSLTSYGVHWVRQSPGKGLEWLGVIWSGGRTDYNAAFISRLNISKDSSKSQVFFKMNSLQADDTAIYYCARKGSSYYGLYYYGMDFWGQGTSVTVSS
VL: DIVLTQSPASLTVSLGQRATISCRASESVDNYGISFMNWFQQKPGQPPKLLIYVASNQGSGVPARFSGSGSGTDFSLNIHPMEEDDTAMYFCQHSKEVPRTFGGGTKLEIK
notes: as for B1
B5: 174E10 (antibody, V domains shown)
VH: B4 VH with T57I, N68S, S73N, F112Y
VL: DIVMTQSPSSLTVTAGEKVTMSCKSSQSLLNSGNQKNYLTWYQQKSGQTPKLLIYWASTRESGVPDRFTGSGSGTDFTLTISSVQAEDLAVYYCQNDYGYPLTFGAGTKLELK
notes: as for B1
B6: 2D4 (antibody, V domains shown)
VH: EVNLVESGGGLVKPGGPLKLSCAASGFTFSSFVMSWVRQTPEKRLEWVASITSGGTTFYPDSVKGRFTISRDNARNILYLQMSNLRSGDTAMYYCARGPPQFSSLSMDYWGQGTSVTVSS
VL: DIVMTQSQKFMSTSVGDRITITCKASQNVGTAVSWFQQKPGQVPKLLIYSASNRYTGVPDRFTGSGSGTEFTLTISNIQSEDLADYFCQQYSSLFTFGSGTKLEIK
notes: as for B1
B7: 26D7H3aL2c (antibody, V domains shown)
VH: QVQLVQSGAEVKKPGASVKISCKVSGYTFTDYGMNWVRQTPGQGLKWVGWINTYTGEPTYADDFKDRFTFTLDASTSTAYMELRSLRSDDTAVYFCARRYGYDAGIDAWGQGTLVTVSS
VL: EIVLTQSPGTLSLSPGERATLSCRASESVESYGNNLMHWYQQKPGQAPRLLIYLASYLESGVPDRFSGSGSGTDFTLTISRLEPEDFATYYCQQNNESPWTFGQGTKVEIK
notes: Humanized; also called humanized anti-GFRAL antibody 26D7H3aL2c
B8: 26D7H5bL5a (antibody, V domains shown)
VH: QVQLVQSGAEVKKPGASVKVSCKVSGYTFTDYGMNWVRQAPGQGLEWMGWINTYTGEPTYAQKLQGRVTFTTDTSTSTAYMELRSLRSDDTAVYYCARRYGYDAGIDAWGQGTTVTVSS
VL: DIQMTQSPSSLSASVGDRVTITCRASESVESYGNNLMHWYQQKPGKAPKLLIYLASYLESGVPSRFSGSGSGTDFTLTISSLQPEDFATYYCQQNNESPWTFGGGTKLEIK
notes: Humanized; also called humanized anti-GFRAL antibody 26D7H5bL5a

target: T1, Mouse GFRAL (mGFRAL) on HEK293 reporter …; assay: cell-based or functional assay

Row | IC50 (nM), luciferase reporter gene assay, Mouse GFRAL/mouse RET | Binder
1 | > 694 nM | B1
2 | > 694 nM | B2
3 | 7.22 nM | B3
4 | > 694 nM | B4
5 | 105 nM | B5
6 | 2.23 nM | B6

target: T2, Human GFRAL (hGFRAL) on HEK293 reporter …; assay: cell-based or functional assay

Row | IC50 (nM), luciferase reporter gene assay, Human GFRAL/human RET | Binder
7 | 3.29 nM | B1
8 | 3.33 nM | B2
9 | 55.5 nM | B3
10 | 104 nM | B4
11 | 37.2 nM | B5
12 | 11.6 nM | B6

target: T3, Mouse GFRAL-Fc protein; assay: ELISA, antigen coated on plate, purified antibody titrated, HRP anti-mouse IgG detection
Procedure: (§1) The ELISA assay had the following protocols. Human GFRAL-His protein, cynomolgus monkey GFRAL-His protein, or mouse GFRAL-Fc protein were coated on 96-well plates, and after blocking the wells with PBS/1% BSA solution, the hybridoma supernatant or purified antibodies were added to the reaction wells. After incubation for 1 hour at room temperature, HRP-labeled anti-mouse IgG (Fab region) antibody was added to the reaction wells to incubate for an additional hour at room temperature. After the substrate and stop solution were added successively, the OD₄₅₀ values were read. The OD₄₅₀ values were used to verify and assess the binding ability of the antibodies to the GFRAL proteins.

Row | EC50 | Binder
13 | 0.12 nM | B3
14 | 0.14 nM | B4
15 | 0.12 nM | B5
16 | 0.08 nM | B6

target: T4, Human GFRAL-His protein; assay: as above
Procedure: as §1

Row | EC50 | Binder
17 | 1.87 nM | B1
18 | 0.05 nM | B2
19 | 0.27 nM | B3
20 | 0.28 nM | B4
21 | 0.18 nM | B5
22 | 0.09 nM | B6

target: Cynomolgus monkey GFRAL-His protein (cynomolgus monkey); assay: as above
Procedure: as §1

Row | EC50 | Binder
23 | 0.09 nM | B1
24 | 0.06 nM | B2
25 | 0.03 nM | B3
26 | 0.07 nM | B4
27 | 0.06 nM | B5
28 | 0.1 nM | B6

target: T5, Human GFRAL protein (Biacore analyte); assay: Biacore SPR, antibody captured via anti-human Fc on CM5, GFRAL injected, 25 C
Procedure: Binding affinity assays were performed for three antibody strains 168A7, 8E10 and 26D7 based on the Biacore affinity assay. The binding affinities of purified antibodies to human or mouse GFRAL were assessed by measuring the equilibrium dissociation constants (KD). The anti-human Fc antibody was immobilized in the flow cell of the CM5 chip according to the instructions of the amino-coupled kit (catalogue number: BR100050, Cytiva). Purified antibodies (˜300 RU) were captured on flow cells 2, 3 and 4 using flow cell 1 as a reference. Human or mouse GFRAL protein (in an HBS-EP buffer) was then injected at a flow rate of 30 μL/min and the binding kinetics were evaluated at 25° C. The results were as follows (FIGS. 1A-1C, Table 4)

Row | Kd | koff | Binder
29 | 0.00145 nM | 7.06e-05 s⁻¹ | B1
30 | 0.0179 nM | 0.000404 s⁻¹ | B2

target: T1, Mouse GFRAL (mGFRAL) on HEK293 reporter …; assay: cell-based or functional assay; remark: another data set of the same source

Row | IC50 (nM), luciferase reporter gene assay, Mouse GFRAL/mouse RET | Binder
31 | 1.9 nM | B7
32 | 0.9 nM | B8

target: T2, Human GFRAL (hGFRAL) on HEK293 reporter …; assay: cell-based or functional assay; remark: another data set of the same source

Row | IC50 (nM), luciferase reporter gene assay, Human GFRAL/human RET | Binder
33 | 8.3 nM | B7
34 | 11.8 nM | B8

target: T6, Mouse GFRAL protein (Biacore analyte); assay: Biacore SPR, humanized antibody captured via murine anti-human Fc on CM5, GFRAL injected in 2-fold dilutions, 25 C
Procedure: (§2) Specific protocols are as follows.
(§3) The surface of the CM5 chip was activated using 400 mM EDC and 100 mM NHS at a flow rate of 10 μl/min according to the instructions for the amino-coupled kit (Cat. No. BR100050, Cytiva). Then, the murine anti-human Fc antibody was immobilized in the test channel (Fc2) and the reference channel (Fc1) of the CM5 chip. Finally, the chip was blocked with 1 M ethanolamine at a flow rate of 10 μl/min; The humanized antibody (˜300 RU) diluted to 5 μg/ml was then captured on the assay channel (Fc2), and ligand capture were not carried out on the reference channel. Human, mouse or cynomolgus monkey GFRAL proteins (in a HBS-EP buffer) with 2-fold doubling dilutions was subsequently injected at a flow rate of 30 μL/min and the binding kinetics were evaluated at 25° C. The results are as follows (see Table 12)

Row | koff | Binder
35 | 0.000215 s⁻¹ | B7
36 | 0.000314 s⁻¹ | B8

target: T5, Human GFRAL protein (Biacore analyte); assay: as above
Procedure: as §2, §3

Row | Kd | koff | Binder
37 | 0.0465 nM | 0.000125 s⁻¹ | B7
38 | 0.119 nM | 0.000268 s⁻¹ | B8

target: Cynomolgus monkey GFRAL protein (Biacore analyte) (cynomolgus monkey); assay: as above
Procedure: as §2, §3

Row | Kd | koff | Binder
39 | 0.131 nM | 0.000193 s⁻¹ | B7
40 | 0.246 nM | 0.000231 s⁻¹ | B8

From US20240368286A1 (SHANGHAI JMT BIO TECHNOLOGY, published 2024)
